Patent US20220257632A1, “MICROLUMENAL TARGETING OF CANCER CELLS” (Fred Hutchinson Cancer Research Center, priority 2019, published 2022)

How the values were obtained:
MMTV-PyMT clusters [1] = assay: Sulfo-NHS-biotin permeability of MMTV-PyMT clusters; type: cell-based, mouse; conditions: treatment 1 hr prior to biotin
Description: (§1) FIG. 4C is a quantification of epigen immunogold signal; n=268 gold particles. To determine if microlumenal junctions were permeable, clusters were incubated with cell-impermeable sulfo-NHS-biotin. 1 mM EGTA was used as a positive control to disrupt cell-cell junctions. Biotin leak was quantified by measuring streptavidin-FITC fluorescence signal within clusters. n=3 biological replicates. n=75 clusters per condition. P-values=Mann-Whitney tests (FIG. 4D) Immunofluorescence of epigen in clusters with and without 1 mM EGTA treatment to disrupt cell-cell junctions was measured. […] P-value=Mann-Whitney test.
The accumulation of epigen within microlumina implied a mechanism for preventing ligand diffusion and signal reduction. To characterize the permeability of tumor cell clusters, a technique used to differentially label apical and basal proteins was adapted. Clusters were treated with a cell impermeable biotin (sulfo-NHS-biotin, 0.4 KDa) which labels membrane surface proteins but is excluded from the cytosol. At baseline, biotin was excluded from cell-cell junction membranes within MMTV-PyMT clusters and predominantly labeled the cell-matrix junction membranes (FIG. 4D).
To test the permeability of tumor cell clusters, NHS-biotin was added to a final concentration of 0.8 mM in PBS for 30 minutes at 37° C. […]
(§2) Phalloidin staining and DAPI were used to define membrane and nuclear areas, respectively. Using the freehand line tool in FIJI software, lines along cell-matrix (outer membrane), cell-cell (intercellular) membranes, and intracellular (cytosolic) areas were drawn and median fluorescence intensity was measured for each channel. […] Then the polygon selection tool was used to measure FITC-streptavidin intensity in the cluster core (excluding the cell-matrix contacts) and intensity was normalized to the area measured. To assess biotin permeability in tumor vs. stroma areas, mean FITC-streptavidin signal was measured in FIJI in equally sized squares in adjacent pure tumor or pure stroma areas. […]

MMTV-PyMT clusters [2] = assay: Epigen immunofluorescence in MMTV-PyMT clusters after junction disruption; type: cell-based, mouse
Description: as §1, with “test. […]” for “test.”
as §2

HCC70 clusters [3] = assay: Biotin leak-in permeability assay of HCC70 clusters; type: cell-based, human; conditions: 6 days, 3 ng/mL
From the text: FIG. 7A is a qPCR measurement of EPGN expression in HCC70 clusters. n=3 biological replicates. P-values=unpaired t-tests. […] P-values=unpaired t-tests. FIG. 7C is a quantification of individual lung metastasis areas (lungs three weeks after tail vein injection of 200,000 Ctrl-kd or Epgn-kd HCC70 clustered cells). n (# of metastases): Ctrl-kd=299, Epgn-kd=87. n (# of mice): 7 per condition. Box plot=5-95%. P-value=Mann-Whitney test. […] Line=non-linear regression. Band=95% CI. n=3 biological replicates. P-value=extra sum-of-squares F test. […] P-value=Mann-Whitney test. FIG. 7F is a quantification of internal FITC-streptavidin intensity biotin leak-in assay of HCC70 clusters after 6 days of treatment with or without 3 ng/mL IFNγ). n=60 untreated clusters, 70 IFNγ treated clusters. n=3 biological replicates. […] 3 weeks later, lung metastases were scored by staining for the human-specific marker CD298. […]
Phalloidin staining and DAPI were used to define membrane and nuclear areas, respectively. Using the freehand line tool in FIJI software, lines along cell-matrix (outer membrane), cell-cell (intercellular) membranes, and intracellular (cytosolic) areas were drawn and median fluorescence intensity was measured for each channel. […] To assess biotin permeability in tumor vs. stroma areas, mean FITC-streptavidin signal was measured in FIJI in equally sized squares in adjacent pure tumor or pure stroma areas. […]

[4] = system: HCC70 tumor cell clusters; assay: Viable cell quantification of HCC70 clusters after 6 days of IFNγ treatment; type: cell-based, human
From the text: (§3) FIG. 7A is a qPCR measurement of EPGN expression in HCC70 clusters. n=3 biological replicates. P-values=unpaired t-tests. […] P-values=unpaired t-tests. FIG. 7C is a quantification of individual lung metastasis areas (lungs three weeks after tail vein injection of 200,000 Ctrl-kd or Epgn-kd HCC70 clustered cells). n (# of metastases): Ctrl-kd=299, Epgn-kd=87. n (# of mice): 7 per condition. Box plot=5-95%. P-value=Mann-Whitney test. […] Line=non-linear regression. Band=95% CI. n=3 biological replicates. P-value=extra sum-of-squares F test. […] P-value=Mann-Whitney test. FIG. 7F is a quantification of internal FITC-streptavidin intensity biotin leak-in assay of HCC70 clusters after 6 days of treatment with or without 3 ng/mL IFNγ). n=60 untreated clusters, 70 IFNγ treated clusters. n=3 biological replicates. P-value=Mann-Whitney test. FIG. 7G is a TEM of HCC70 clusters after 6 days with and without IFNγ treatment (3 ng/mL). MP=microvilli-like protrusions. J=cell-cell junctions. FIG. 7H is a qPCR of (left) RAB25 and (right) CLDN7 in HCC70 clusters after 0, 3, and 6 days with and without 3 ng/mL IFNγ treatment. n=3 biological replicates. P-value=unpaired t-test. FIGS. 7I and 7J: HCC70 single cells were aggregated for 24 hrs then treated with or without 2 ng/mL IFNγ treatment. After 6 days of treatment, clusters from each condition were injected by tail vein into NSG mice, with 200,000 viable clustered cells injected per animal. 3 weeks later, lung metastases were scored by staining for the human-specific marker CD298. Sizes of individual HCC70 metastases at 3 weeks after tail vein injection. n=8 mice/condition, 217 untreated metastases, 79 IFNγ pre-treated metastases. Box plot=5-95%. P-value=Mann-Whitney test (7I). […]
Human cell lines were cultured in complete media (DMEM or RPMI with penicillin/streptomycin+10% FBS) on tissue-culture treated plates, or in non-adherent plates supplemented with 2% Matrigel (v/v). […] Human organoids were cultured with 2% (v/v) or 100% growth factor reduced Matrigel (Corning) with HuMEC Ready media (Fisher 12752010).

HCC70 clusters [5] = assay: TEM of HCC70 clusters with and without IFNγ; type: cell-based, human; conditions: 6 days, 3 ng/mL
From the text: as §3, with “After 6 days of treatment, clusters from each condition were injected by tail vein into NSG mice, with 200,000 viable clustered cells injected per animal.” left out, “CD298.” for “CD298. Sizes of individual HCC70 metastases at 3 weeks after tail vein injection. n=8 mice/condition, 217 untreated metastases, 79 IFNγ pre-treated metastases. Box plot=5-95%. P-value=Mann-Whitney test (7I).”

HCC70 clusters [6] = assay: pHH3 immunofluorescence (mitotic cells) and cell death in HCC70 clusters; type: cell-based, human
HCC70 clusters [7] = assay: qPCR of RAB25 and CLDN7 in HCC70 clusters; type: cell-based, human; conditions: 3 ng/mL
From the text: FIG. 7A is a qPCR measurement of EPGN expression in HCC70 clusters. n=3 biological replicates. P-values=unpaired t-tests. […] P-values=unpaired t-tests. FIG. 7C is a quantification of individual lung metastasis areas (lungs three weeks after tail vein injection of 200,000 Ctrl-kd or Epgn-kd HCC70 clustered cells). n (# of metastases): Ctrl-kd=299, Epgn-kd=87. n (# of mice): 7 per condition. Box plot=5-95%. P-value=Mann-Whitney test. […] Line=non-linear regression. Band=95% CI. n=3 biological replicates. P-value=extra sum-of-squares F test. […] P-value=Mann-Whitney test. FIG. 7F is a quantification of internal FITC-streptavidin intensity biotin leak-in assay of HCC70 clusters after 6 days of treatment with or without 3 ng/mL IFNγ). n=60 untreated clusters, 70 IFNγ treated clusters. n=3 biological replicates. P-value=Mann-Whitney test. FIG. 7G is a TEM of HCC70 clusters after 6 days with and without IFNγ treatment (3 ng/mL). MP=microvilli-like protrusions. J=cell-cell junctions. FIG. 7H is a qPCR of (left) RAB25 and (right) CLDN7 in HCC70 clusters after 0, 3, and 6 days with and without 3 ng/mL IFNγ treatment. n=3 biological replicates. P-value=unpaired t-test. […] 3 weeks later, lung metastases were scored by staining for the human-specific marker CD298. […]
Human or mouse tumor cell clusters were pelleted and snap frozen in liquid nitrogen. […] Data were analyzed using the ΔΔCt method.

HCC70 clusters [8] = assay: Tail vein lung metastasis assay of IFNγ pre-treated HCC70 clusters in NSG mice; type: in vivo; conditions: clusters pre-treated 6 days at 2 ng/mL, 3 weeks
From the text: FIG. 7A is a qPCR measurement of EPGN expression in HCC70 clusters. n=3 biological replicates. P-values=unpaired t-tests. […] P-values=unpaired t-tests. FIG. 7C is a quantification of individual lung metastasis areas (lungs three weeks after tail vein injection of 200,000 Ctrl-kd or Epgn-kd HCC70 clustered cells). n (# of metastases): Ctrl-kd=299, Epgn-kd=87. n (# of mice): 7 per condition. Box plot=5-95%. P-value=Mann-Whitney test. […] Line=non-linear regression. Band=95% CI. n=3 biological replicates. P-value=extra sum-of-squares F test. […] P-value=Mann-Whitney test. FIG. 7F is a quantification of internal FITC-streptavidin intensity biotin leak-in assay of HCC70 clusters after 6 days of treatment with or without 3 ng/mL IFNγ). n=60 untreated clusters, 70 IFNγ treated clusters. n=3 biological replicates. P-value=Mann-Whitney test. […] 3 weeks later, lung metastases were scored by staining for the human-specific marker CD298. […]
For single cell vs. cluster experiments, mTomato-PyMT organoids were dissociated to single cells at day 0 using Accumax (20 minutes at 37° C.). […] DIC images were taken before injection and assessed to ensure similar number and size of clusters injected between conditions. 3 weeks after tail vein injection mice were euthanized and lungs imaged under a dissecting microscope for quantification of fluorescent (metastatic) area. […]

MDA-MB-231 [9] = assay: Viable cell quantification of MDA-MB-231 after 6 days of IFNγ treatment; type: cell-based, human; conditions: MDA-MB-231, viable cells after 6 days of treatment
MDA-MB-231 [10] = assay: Biotin permeability of MDA-MB-231 clusters; type: cell-based, human; conditions: MDA-MB-231, with or without treatment
tumor cell clusters = assay: Cluster outgrowth on treatment with recombinant epigen; type: cell-based
[11] = HCC70 tumor cell clusters, viable cells after 6 days of treatment

With `C/C1=C/C(=O)O[C@@H]2C[C@@H](CC[C@H](C)/C=C\C=C\CC1)O[C@@](O)([C@@H]1CSC(=O)N1)C2` [Latrunculin A] the “biotin leak into clusters” value (MMTV-PyMT clusters [1]) was “allowed biotin to leak between clustered cells”.

With `O=C(O)CN(CCOCCOCCN(CC(=O)O)CC(=O)O)CC(=O)O` [calcium chelation, ethylene glycol-bis(β-aminoethyl ether)-N,N,N′,N′-tetraacetic acid] the “epigen signal in clusters (immunofluorescence)” value (MMTV-PyMT clusters [2]) was “marked loss of epigen signal” and the “biotin leak into clusters” value (MMTV-PyMT clusters [1]) was “biotin was able to leak into intercellular spaces”.

`C[C@@H]1Cc2c(Cl)cc(C(=O)N[C@@H](Cc3ccccc3)C(=O)O)c(O)c2C(=O)O1` [ochratoxin A] was tested, and the “biotin leak into clusters” value (MMTV-PyMT clusters [1]) was “allowed biotin to leak between clustered cells”.

B1: interferon gamma (protein, UniProt P01579 24-161, looked up)
Interferon gamma: QDPYVKEAENLKKYFNAGHSDVADNGTLFLGILKNWKEESDRKIMQSQIVSFYFKLFKNFKDDQSIQKSVETIKEDMNVKFFNSNKKKRDDFEKLTNYSVTDLNVQRKAIHELIQVMAELSPAAKTGKRKRSQMLFRG
notes: a cytokine FDA-approved for use in patients
With B1 the “intercellular permeability by biotin-leak assay” value (HCC70 clusters [3]) was “increased intercellular permeability”, the outgrowth ([4]; HCC70 clusters) was “markedly reduced outgrowth” and the IC50 [4, 11] was 0.58 ng/mL. For the same molecule, the IC75 [4, 11] was 0.97 ng/mL, the “microlumenal spacing and electron-dense junctions by TEM” value (HCC70 clusters [5]) was “increased microlumenal spacing and decreased electron-dense junctions” and the cell death (HCC70 clusters [6]) was “not increased cell death”. For the same molecule, the “proliferation (% pHH3+ nuclei)” value (HCC70 clusters [6]; 6 days, 3 ng/mL) was “strong suppression of proliferation”, the “CLDN7 expression (qPCR)” value (HCC70 clusters [7]) was “significant reduction” and the “RAB25 expression (qPCR)” value (HCC70 clusters [7]) was “significant reduction”. The “number of lung metastases” value (HCC70 clusters [8]) was “fewer”, the “size of lung metastases” value (HCC70 clusters [8]) was “significantly smaller” and the IC50 (MDA-MB-231 [9]) was 4.24 ng/mL. The IC75 (MDA-MB-231 [9]) was 22.3 ng/mL and the biotin permeability (MDA-MB-231 [10]) was “highly biotin-permeable in both the absence or presence of IFNγ treatment”.

B2: recombinant epigen: Recombinant epigen (R&D 1127-EP), growth factor and EGFR ligand (protein, UniProt Q6UW88 23-154, looked up)
Epigen: AAVTVTPPITAQQGNWTVNKTEADNIEGPIALKFSHLCLEDHNSYCINGACAFHHELEKAICRCFTGYTGERCEHLTLTSYAVDSYEKYIAIGIGVGLLLSGFLVIFYCYIRKRCLKLKSPYNVCSGERRPL
For B2, the outgrowth (tumor cell clusters) was “induced outgrowth in a dose-dependent manner”.
